Experimental data: patent US20250115640A1, “NEUROPROTECTIVE POLYPEPTIDE COMPOUND AND APPLICATION THEREOF” (Innerse (Zhuhai) Pharmaceutical Co., Ltd., priority 2021, published 2025)
Values joined by “and” are separate entries in the source; they are usually repeats but may differ in a detail not shown here. Equal entries are not always repeated.

Tests used:
Assay type in all cases: in vivo, Sprague-Dawley (SD) rats
[1] = Body weight of MCAO model animals (Example 6); settings: individual animal
Description: • Animals measured: all the surviving experimental animals planned to be measured; • Measurement time: the body weight was measured at least twice during the adaptation period, once 24 hours before surgery for grouping, and once 24 hours after surgery.
Cerebral ischemia-reperfusion is an acute injury model, wherein the weight of experimental animals will drop dramatically after MCAO modeling. Thus, the weight of experimental animals is one of the most basic sensitive parameters to comprehensively reflect the health status of animals. In this experiment, the body weight of all the animals was monitored on the day before the surgery and on the first day after the surgery, and the changes of animal's body weight were observed and recorded.

[2] = system: MCAO ischemia-reperfusion model; assay: MCAO ischemia-reperfusion model, rat Neurological Severity Scores (NSS) (Example 6)
Text: 3) Cerebral ischemia reperfusion surgery: • A. Isolating and exposing blood vessels: the skin of the surgical area was shaved, and the rats were placed under a surgical microscope. The skin of the rat was cut along the midline with ophthalmic scissors, with a cut of about 2 cm length. Through the right neck of the rat, the muscle tissue of the right neck was bluntly isolated and opened with a microforcep to expose the right common carotid artery (CCA), and then isolated upward along the common carotid artery to further expose the external carotid artery (ECA) and internal carotid artery (ICA); • B. The proximal end of CCA was ligated and the CCA at the Y-shaped branch was temporarily clamped; the ligated site of CCA to the clamped site of ICA were threaded, tied with a loose knot (pre-ligation) for later use, and a small incision at the proximal end of the pre-ligation was made; • C. Inserting the suture emboli: Suture emboli No. 4-0 was inserted through the incision of CCA, pushed slowly and gently into the internal carotid artery, and stopped temporarily at the artery clamp of ICA. The pre-ligation thread was tied tightly (to avoid severe bleeding when pushing the suture emboli), then the artery clamp that blocked the blood flow of ICA was removed, and the suture emboli was immediately pushed into ICA until entering into the cranium. One should be careful not to insert the suture emboli into the pterygopalatine artery, which is another branch of the internal carotid artery and is one of the extra-cranial branches of ICA. […] Then the insertion was terminated and the time was recorded. […] Note: The first digit of the animal number represents the group (1, 2, 3 and 4 represent the model control group, S3 group, t-PA group and S3+t-PA group respectively), and the second letter represents the gender (M is male), the last three digits represent the animal serial number. a means giving 3 mL S3 and 3 mL sterile water for injection, b means giving 3 mL t-PA and 3 mL sterile water for injection, c means giving 3 mL S3 and 3 mL t-PA. • Route of administration: tail vein injection; • Administration time: immediately after ischemia-reperfusion (within 5 minutes); • Dosing frequency and cycle: 1 dose; • The day of modeling was defined as D0, and the day before was defined as D-1. • Measurement time: 24 hours before the modeling, 24 and 72 hours after the modeling; • Animals measured: all the surviving animals planned to be measured; • Measurement method: a motor function test, sensory test, balance test, and reflex and abnormal behavior test were performed on animals, according to the rat for details. […]

[3] = system: MCAO ischemia-reperfusion model; assay: MCAO ischemia-reperfusion model, TTC staining, cerebral infarct area and inhibition rate (Example 6)
[4] = 3 mg/kg i.v. immediately after reperfusion, 24 h after surgery, group mean ± SD

B1: t-PA: recombinant human TNK tissue-type plasminogen activator for injection (Mingfule) purchased from Guangzhou Mingkang Bioengineering Co., Ltd. (protein, UniProt P00750 36-562, looked up, variant T103N N117Q K296A H297A R298A R299A)
Tissue-type plasminogen …: SYQVICRDEKTQMIYQQHQSWLRPVLRSNRVEYCWCNSGRAQCHSVPVKSCSEPRCFNGGTCQQALYFSDFVCQCPEGFAGKCCEIDTRATCYEDQGISYRGNWSTAESGAECTNWQSSALAQKPYSGRRPDAIRLGLGNHNYCRNPDRDSKPWCYVFKAGKYSSEFCSTPACSEGNSDCYFGNGSAYRGTHSLTESGASCLPWNSMILIGKVYTAQNPSAQALGLGKHNYCRNPDGDAKPWCHVLKNRRLTWEYCDVPSCSTCGLRQYSQPQFRIKGGLFADIASHPWQAAIFAAAAASPGERFLCGGILISSCWILSAAHCFQERFPPHHLTVILGRTYRVVPGEEEQKFEVEKYIVHKEFDDDTYDNDIALLQLKSDSSRCAQESSVVRTVCLPPADLQLPDWTECELSGYGKHEALSPFYSERLKEAHVRLYPSSRCTSQHLLNRTVTDNMLCAGDTRSGGPQANLHDACQGDSGGPLVCLNDGRMTLVGIISWGLGCGQKDVPGVYTKVTNYLDWIRDNMRP
modifications: tenecteplase (TNK-tPA), Mingfule
Body weight D 2, individual animals ([1]; after surgery and administration): 230.57 g and 203.58 g and 203.63 g and 199.35 g and 205.31 g and 223.28 g and 223.30 g and 217.60 g and 200.68 g
Body weight D 0, individual animals ([1]; before surgery (baseline)): 289.15 g and 246.68 g and 263.91 g and 259.23 g and 273.31 g and 281.77 g and 281.59 g and 273.94 g and 251.02 g
NSS D2, individual animals ([2]; 3 mg/kg i.v. immediately after reperfusion, after surgery, individual animal): 7 (2×) and 8 and 7.5 (2×) and 6.5 (2×) and 6 and 5.5
NSS D 2 ([2]; 3 mg/kg i.v. immediately after reperfusion, one day after surgery, group mean ± SD): 6.83±0.75
NSS reduction rate ([2]; one day after surgery, relative to model control group, group mean ± SD): 11.83±9.62%
NSS reduction rate, individual animals ([2]; relative to model control group, individual animal): 9.68% (2×) and −3.23% and 3.23% (2×) and 16.13% (2×) and 22.58% and 29.03%
Infarct area, individual animals ([3]; 3 mg/kg i.v. immediately after reperfusion, 24 h after modeling, individual animal): 19.069% and 18.394% and 16.546% and 21.064% and 19.195% and 18.719% and 16.209% and 18.356% and 19.147%
Infarct area weight [3, 4]: 0.26 ± 0.022 g
infarct area [3, 4]: 18.522±1.372%
Cerebral infarct inhibition rate ([3]; 3 mg/kg i.v. immediately after reperfusion, 24 h after surgery, vs model control, group mean ± SD): 22.802±5.719%
Weight of infarct area, individual animals ([3]; 24 h after modeling, individual animal): 0.291 g and 0.268 g and 0.229 g and 0.289 g and 0.272 g and 0.260 g and 0.230 g and 0.239 g and 0.265 g
Cerebral infarct inhibition rate, individual animals ([3]; vs model control group, individual animal): 20.521% and 23.336% and 31.037% and 12.207% and 19.996% and 21.984% and 32.445% and 23.493% and 20.196%
